The values that follow come from paper PMC8458682 (Slas Discovery, 2022).

Data set [1] has as its system CC(C)C[C@H](NC(=O)[C@@H](NC(=O)[C@@H](NC(=O)[C@@H](NC(=O)c1ccccc1N)C(C)C)C(C)C)[C@@H](C)O)C(=O)N[C@@H](CCC(N)=O)C(=O)N[C@@H](CO)C(=O)NCC(=O)N[C@@H](CNc1ccc([N+](=O)[O-])cc1[N+](=O)[O-])C(=O)N[C@@H](CCCNC(=N)N)C(=O)O. Kind of data set: purified protein, by the assay type. The settings on record: pH 7.4.
In data set [2] the test system is CC(C)C[C@H](NC(=O)[C@@H](NC(=O)[C@H](C)NC(=O)[C@H](CO)NC(=O)c1ccccc1N)C(C)C)C(=O)N[C@@H](CCC(N)=O)C(=O)N[C@@H](CO)C(=O)NCC(=O)N[C@@H](Cc1ccc(O)c([N+](=O)[O-])c1)C(=O)N[C@@H](CCCNC(=N)N)C(=O)O. Kind of data set: purified protein, by the assay type. The conditions noted are these: pH 7.4.
Data set [3] has as its system CC(C)C[C@H](NC(=O)[C@@H](NC(=O)[C@@H](NC(=O)[C@@H](NC(=O)c1ccccc1N)C(C)C)C(C)C)[C@@H](C)O)C(=O)N[C@@H](CCC(N)=O)C(=O)N[C@@H](CO)C(=O)NCC(=O)N[C@@H](Cc1ccc(O)c([N+](=O)[O-])c1)C(=O)N[C@@H](CCCNC(=N)N)C(=O)O. Kind of data set: purified protein, by the assay type. The settings on record: pH 7.4.
Data set [4] addresses T1, SARS-CoV-2 M^pro (Severe acute respiratory syndrome coronavirus 2, UniProt P0DTD1). Format: biochemical.
Data set [5] concerns the target T1, SARS-CoV-2 M^pro. Put plainly: biochemical. The conditions noted are these: read-out: Screening: Inhibition @ 50 µM.

As to “SARS-CoV-2 M^pro (Severe acute respiratory syndrome coronavirus 2)”, in data set [1], the Km – broadly, the concentration of substrate that gives half-maximal velocity – is on record as 103.3 ± 18.5 µM; the Vmax (usually the rate approached at saturating substrate) was 0.426 µM/min; the kcat (in general, the maximal rate divided by the concentration of active sites) worked out at 0.0237 ± 0.0017 s⁻¹; the kcat/Km – broadly, the turnover number divided by the Michaelis constant – was 229 ± 44.2 M⁻¹ s⁻¹. In data set [2], the Km came to 536.3 ± 156.6 µM, the Vmax stood at 2.39 µM/min, the kcat amounted to 0.133 ± 0.0279 s⁻¹ and the kcat/Km was 248 ± 89.2 M⁻¹ s⁻¹. For the same compound, in data set [3], the Km was 197.9 ± 39.0 µM, the Vmax came out at 1.32 µM/min, the kcat came to 0.0733 ± 0.0077 s⁻¹ and the kcat/Km is 370 ± 82.6 M⁻¹ s⁻¹.

Regarding `CC(C)(C)NC(=O)N[C@H](C(=O)N1C[C@H]2[C@@H]([C@H]1C(=O)NC(CC1CCC1)C(=O)C(N)=O)C2(C)C)C(C)(C)C` (some centres unmarked) [Boceprevir], the Hill slope (commonly a measure of the steepness of the concentration-response curve) in data set [4] came to 0.85 ± 0.05. Besides, in data set [5], the inhibition (usually the change of the read-out against control, counted positive when it falls) at 50 µM came to 55.5 ± 4.7%.
